Measurements from the nanobody polyreactivity screen of Harvey et al. (2022).

Assay: yeast display, Sf9 membrane polyspecificity reagent, FACS + sequencing; frameworks hold sequencing errors
Outline: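 A nanobody's polyreactivity label depends on the gate it was sorted from. Yeast display cells were stained with 10% biotinylated, detergent-solubilized Sf9 membrane reagent for 1 hour at 4 °C, enriched on streptavidin microbeads and sorted by FACS. The low and high (top ~1%) gates were set on anti-HA fluorescence for expression and streptavidin fluorescence for reagent binding.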

| Sequence | polyreactivity (PSR sort gate) |
| --- | --- |
| QDQLVESGGGLVQAGGSLRLSCAASGITFQYYAMGWYRQAPGKERELVAAITKRGGSTYYADSVKGRFTISRDNAKNTVYLQMKSLKPEDTAVYYCAADYGSWRNYIFLDDYWGQGTQVTVSS | high polyreactivity |
| QVQLVESGGGLVQAGGSLRIRCAASGSIFGFYALGWSRHAPGKERELVASISWRGSRTYYADSVKGRFTISRDNAKNTVYLQMNSLKPEDSAVYYCNAVAYVSSPQYVSTATGYGYWGQGTQVTVSS | high polyreactivity |
| QVQLVESGGGLVQAGGSLRLSCAASGRIFYKYVMGWYRQAPGNERELVATITSGGSTYYADSVKGRFTISRDNAKNTVYLQMNSLKPEDTAVYYCAARKYYSRAYDYWGQGTQVTVSS | high polyreactivity |
| QVQLVESGGGLVQAGGSLRLSCAASGSTFPGYAMGWYRQAPGKERELVAAINWRGDSTYYADSVKGRFTISRDNAKNTVYLQMNSLKPEDTAVYYCAAKYNHVTDEYDYWGQGTQVTVSS | high polyreactivity |
| QVQLVESGGGLVQAGGSLRLSCAASGRTFSGYAMGWYRQAPGKERELVAAITSSGSSTYYADSVKGRFTISRDNAKNTVYLQMNSLKPEDTAVYYCAATPQAHSERYYYQRKYDYWGQGTQVTVSS | low polyreactivity |
| QVQLVESGGGLVQAGGSLRLSCAASGRTCVGNAMGWYRQAPGKERELVAAIRRGGDSTYYADSVKGRFTISRDNAKNTVYLQMNSLKPEDTAVSYCNAVSLQPYRGGFDYWGQGTQVTVSS | low polyreactivity |
| QVQLVESGGGLVQAGGSLRLSCAASGFLFDFYPLGWYRPAPGKDRELVAAITNGGSTYYADSVKGRFTISRDNAKNTDYLQMNSLKPEDTAVYYCAAYYRSRHHGYDSCGQGTQVTVSS | low polyreactivity |
| QVQLVESGGGLVKAGGSLRLICAASGSTFGGNDKGWYRHAPGKERELVDAISSGTSTNYADSVKGRFTISRDNAMNTVYLQMNSLKPEDTAVYYCNAGFWYRRTYDYWGQGTQVTVSS | low polyreactivity |
| QVLLVESGVGLVQAGGSLRLSCASSGFTFYRNAMGWYRQAPGKERELVASISRSGGSTYYADSVKGRFTISRDNAKNTVYLQMNSLKPEDTAVYYCAADLWWIYPHKYYYWGQGTQVTVSS | high polyreactivity |
| QFQLVESGGGLVQAGGSLRLSCAASGSIFDSYYMGWYRQAPGKEREMVAAITSGGSTNYADSVKGRFTISRDNAKNTVYLQMNSLKPEDTAVYYCAAYYWYPVYYGYEYWGQGTQVTVSS | low polyreactivity |
| QVQLVESGGGLVQAGGSLRLSCAASGFTIYWYTMVWYRQAPGKERELVAAISRRGGRTYYADSVKGRFTISRDNAKNTVYLQMNSLKPEDTAVYYCAADGTSPVDMNYWGQGTQVTVSS | high polyreactivity |
| QVQLVESGGGLVQAGGSLRLSCAASGSTFPVYAMGWYRQAPGKERELVASISSGGSTYYADSVKGRFTISRDNAKNTVYLQMNSLKPEDTAVYYCAKDPWVESFVIYDYWGQGTQVTVSS | low polyreactivity |
| QVLLVESGGGLVQAGGTLRLSCADSGFTFVTYGMGWYRQEPGKERELVARISSSSTNYADSVKGRFTISRDNAKNTVYLQMKSLKPEDTEVYYCAAVHYRWWYRSAYDFWGQGTQVTVSS | low polyreactivity |
| QDQLVESGGGLVQAGGSLRLSCAASGRTFWYYAMGWYRQATGKERELVAAISSRGGTTYYADSVKGRFTISRDNAKNTVYLQMNSVKPEDTAVYYCASERWDLWLLYDYWGQGTQVTVSS | high polyreactivity |
| QVQLVESGGGLVQAGGSLRLSCAASGSILTDNAMGWYRQAPGKERELVASITGSGGSTYYADSVKGRFTISRDNAKNTVYLQMNSLKPEDTAVYYCAASYRLRYGYWGQGTQVTVSS | high polyreactivity |
| QVQLVESGGGLVQAGGSLRLSCAASGRTFGGNVMGWYRQAPGKERELVAAITWSGGRTYYADSVKGRFTISRDNAKNTVYLQMNSLKPEDTAVYYCNARNGFTVKKFYYWGQGTQVTVSS | high polyreactivity |
| QVQLVESGGGLVQAGGSLRLSCAASGFIFTFYALGWYRQAPGKEREFVASIDWGDGSTYYADSVKGRFTISRDNAKNTVYLQMNSLKPEDTAVYYCAHDYDGYVWDTEYDYWGQGTQVTVSS | low polyreactivity |
| QVQLVESGGGLVQAGGSLRLSCAASGLIFGRYAMGWYRQAPGKERELVAAISSSGVRTYYADSVKGRFTISRDNAKNTVYLQMNSLNPEDTAVYYCAAYDWYISEDYRYYYFWEYDYWGQGTQVTVSS | high polyreactivity |
| QVQLVESGGGLVQAGGSLRLSCAASGSIIKWYAMGWYRQAPGKERELVAAISASGGSTYYADSVKGRFTISRDNAKHTVYLQMNSLKPEDTAVYYCNTDHYYSSRHYDYWGQGTQVTVSS | low polyreactivity |
| QVQLVESGGGLVQAGGSLRLSCAASGFTFSTYAMGWDRQAPGKERELVAAISRSGGSTYYADSVKGRFTISRDNAKNTVYLQMNSLKPEDTAVYYCAVRPFRSAGGSVTRGAYYYWGQGTQVTVSS | high polyreactivity |
| QVQLVESGGGLVQAGGSLRLSCAASGSTLSQNAMGWSRQAPGKEREFVADISGSGDSTYYADSVKGRITISRDNAKNTVYLQMNSLKPEDTAVYYCAAEELSHYEYWGKGTQVTVSS | low polyreactivity |
| QVQLVESGGGLVQAGGSLRLSCAASGLTLIRYAMGWYRQAPGKERELVAAISWSGGSTYYADSVKGRFTISRDNAKNTVYLQMNSLKPEDTAVYYCNTVYRYPDEYDYWGQGTQVTVSS | high polyreactivity |

| Sequence | polyreactivity (PSR sort gate) |
| --- | --- |
| QVQLVESGGGLVQAGGSLRLSCAASGRTFSYYAMGWYRQAPGKEREFVAAISSTGTSTYYADSVKGRFTISRDTAKNTVYLQKNSLKPEDTAVYYCNARLATYRLHSKFYYWGQGTQVTVSS | high polyreactivity |
| QVQLVESGGGLVQAGGSLRLSCAATGRIFPYYAMGWYRQAPGKERALVATISSGGRTNYADSVKGRFTISRDNAKNTVYLQMNSLNPEDTAVYYCAADYRKSRVFYGLYYWGQGTQVTVSS | high polyreactivity |
| QVQLVESGGGLVQAGGSLRLSCAASGLTIFVYAMGWYRQAPGKERELVAAISDSGGSTYYADSVKGRFTISRDNAKNTVYLQMNSLKPEDSAVYYCAGNSSTYPSDDSYDYWGQGTQVTVSS | low polyreactivity |
| QVQLVESGGGLVQAGGSLRLSCAASGRTFYVYAMGWYRQAPGKERELVAAITASGGSTYYADSVKGRFTLSRDNAKNTVYLQMNSLKPEDTAVYYCAARVVTLVRGVGYNYWGQGTQVTVSS | high polyreactivity |
| VQLVESGGGLVQAGGSLRLSCAACGSTFYPYAMGWYRPAPGKERELVAAISYSGGSTYYADSVKGRFTISRDNAKNTVYLQMNSLKPEDTAVYYCAARYWYKRFVWGDYWGQGTQVTVSS | high polyreactivity |
| QVQLVESGGALVQAGGSLRLSCAASGFIFNHYAMGWYRQAPGKEREFVAAISWSGGSTYYADSVKGRFTISRDNAKNTVYLQMNSLKPEETAVYYCAASYNGLWHGDYDYWGQGTQVTVSS | low polyreactivity |
| QVQLVESGGGLVQAGGSLRLSCAASGRIFDCYAMGWDRQAPGKERELVAAIRASGGRTYYADSVKGRFTISRDNAKNTVYLQMNSLKPEDTAVYYCAADSVKYGGDYGGQGTQVTVSS | high polyreactivity |
| QVQLVESGRGIVQAGGSLRLSCAASGIIFGGNAMVWYRQAPGKERELVARIRWGGGSTYYADSVKGRFTISRDNAKNTVYLQMNSLKPEDTAVYYCARTTSYLTSTRRYYYWGQGTQVTVSS | high polyreactivity |
| QVQLVETGGGLVQARGSLRLSSAASGIIFYRYAMGWYRQAPGKETDFVAAISWSGGSTTYADSVKGRFTISRDNAKNTVYLQMNSLKPVDTAVYYCNAERKYWSLWGPAYDYWGQGTQVTVSS | high polyreactivity |
| QVQLVESGGGLVQAGGSLRLSCAASGCIFRYYAKGWYRQPPGKERELVPVISSNGARTSYADSVKGRFTISRDNATYTVYLQMNSLKPEDTAVYYCNARAWSRFPPVGHDDWGQGTQVTVSS | high polyreactivity |
| QVQLVESGGGLVQAGGSLRLSCAASGSTSSNNAMGWYRQAPGKERELVADISTNGDSTSYADSVKGRFTISRDNAKNTVYLQMNSLKPEDTAVYYCNKDFVYPDDDGLFDYWGQGTQVTVSS | low polyreactivity |
| QVQLVESGGGLVQAGGSLRLICAASGSIFVGYAMGWYRQAPGKERELVAAISSNGGSTYYAYSVKGRFTISRDNAKNTVYLQMNSLKPEDTAVYYCAAGVRRVYASGHGAYGYWGQGTQVTVSS | low polyreactivity |
| QVQLEESGGGLVQAGGSIRLSCAASGSIFYKYVMGCYRQAPGKERELVAAISRGGGSTYYADSVKGRFTISRDNSKNTVYLQMNSLKPEDTAVYYCNAVVRPRYGHGFDHWGQGTQVTVSS | high polyreactivity |
| QVQLVESGGGLVQAGGSLRLSCAASGFIFGPYAMGWYRQAPGKERELVAAISRRGGSTYYADSVKGRFTISRDNAKNTVYLHMNSLKPEDTAVYYCATAGWGEAEGGYWGQGTQVTVSS | high polyreactivity |
| QVQRVESGGGLVQAGGSLRLSSAASGSTFQEYAMGWYSQAPGKERELVASIRWSGGRTYYADSVKGRFTISRDQAKNTVELQMKSLKPEDTAVYYCNKDYYITLHESDGNGGEMDYWGQGTQVTVSS | low polyreactivity |
| QVQLVESGGGIVQAGGSLRLSCAASGFTYARYAKGWYRQAPGKERELVAAITRRGGSTHYADSVKGRFTISRDNAKNTVYLQMTSLKPEDTAVDYCAAYSLHNYLSEYGDWGQGTQVTVSS | high polyreactivity |
| QVQLVESGGGLVQAGGSLRLSCAASGSTFPVNAMGWYRQAPGKERELVAAISSRGSSTYYADSVKGRFTISRDNAKNTVYLQMNSLKPEDTAVYYCAAPQRYPRFYYWGQGTQVTVSS | high polyreactivity |
| QVQLVESGGGLVQAGGSLRLSCAASGFTFFRNAIGWYRQAPGKERELVAAISGSGGSTYYADSVKGRFTISRDNAKNTVYLQMNSLKPEDTAVYYCAARTSYYVYRHPSGRYDYWGQGTQVTVSS | low polyreactivity |
| QVQLVESGGGLVQAGGSLRLSCAASGRIFLRNAMGWYRQAPGKERELVAGINSGGSTYYADSVKGRFTISRDNAKNTVYLQMNSLKPEDTAVYYCAADDGNFLSEDRDSYYGYDYWGQGTQVTVSS | low polyreactivity |
| QVQLVESGGGLVQAGGSLRLSCAASGRIFDLYAMGWYRQAPGKERELVATISGSGGSTYYADSVKGRFTISRDNAKNTVYLQMNSLKPEDTAVFYCAAVSVSSWYDYWGLGTQVTVSS | low polyreactivity |
| QVQLVESGGGLVQAGGSLRLSCAASGSTFDYYPMGWYRQAPGKERELVAAITYSGGRTSYADSVKGRFTISRDNAKNTVYLQMNSLKPEDTAVYYCAAVYDGQYYASYSTYDYDYWGQGTQVTVSS | low polyreactivity |
